Measured values from patent publication US20210230266A1.
Read-outs that look alike come from different tables or passages of the source.

Tests used:
Assay in all cases: cell-based or functional assay
Mouse IL-11 (mouse) [1] = biological target: Mouse IL-11 (mouse) (UniProt P47873)
Mouse IL-11 (mouse) [2] = biological target: Mouse IL-11 (mouse) (UniProt P47873); remark: listed apart in the source
[3] = biological target: IL-11:IL-11Rα fusion protein (hyper IL-11) (human)
Human IL-11 (human) = Human IL-11 (human) (UniProt P20809)
Sequence of Human IL-11 (human) (P20809 22-199 limits assumed): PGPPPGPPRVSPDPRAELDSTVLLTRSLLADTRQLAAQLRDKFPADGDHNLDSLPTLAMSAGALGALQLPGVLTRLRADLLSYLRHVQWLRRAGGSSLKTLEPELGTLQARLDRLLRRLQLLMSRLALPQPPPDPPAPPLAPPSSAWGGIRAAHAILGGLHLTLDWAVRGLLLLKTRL

Sequence of Mouse IL-11 (mouse) (P47873 22-199 limits assumed): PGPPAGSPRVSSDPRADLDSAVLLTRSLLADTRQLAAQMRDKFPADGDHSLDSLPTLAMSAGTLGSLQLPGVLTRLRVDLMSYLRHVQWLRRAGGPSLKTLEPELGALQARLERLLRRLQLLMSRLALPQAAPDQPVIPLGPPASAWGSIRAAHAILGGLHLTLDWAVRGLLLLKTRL
Sequence of IL-11:IL-11Rα fusion protein (hyper IL-11) (human) (chain, as listed by the source limits assumed): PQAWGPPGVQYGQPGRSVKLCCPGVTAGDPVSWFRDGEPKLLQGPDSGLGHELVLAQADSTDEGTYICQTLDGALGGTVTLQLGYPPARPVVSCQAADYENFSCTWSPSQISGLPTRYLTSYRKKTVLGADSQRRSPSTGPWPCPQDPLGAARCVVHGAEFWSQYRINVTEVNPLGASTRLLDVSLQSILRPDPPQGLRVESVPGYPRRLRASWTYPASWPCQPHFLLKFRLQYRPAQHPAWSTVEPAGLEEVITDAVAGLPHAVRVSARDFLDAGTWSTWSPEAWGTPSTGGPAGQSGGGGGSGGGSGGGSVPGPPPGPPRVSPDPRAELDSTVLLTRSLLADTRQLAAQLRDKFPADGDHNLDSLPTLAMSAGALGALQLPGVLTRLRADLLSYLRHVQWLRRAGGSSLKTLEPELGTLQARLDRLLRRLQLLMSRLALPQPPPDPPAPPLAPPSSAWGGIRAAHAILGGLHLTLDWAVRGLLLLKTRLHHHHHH

fold of αSMA-positive cells relative to unstimulated cells, mouse atrial fibroblasts + TGFβ1 (fold of unstimulated) (Mouse IL-11 (mouse) [1]): 1.44
percentage of activated (αSMA-positive) fibroblasts, mouse atrial fibroblasts + TGFβ1 (Mouse IL-11 (mouse) [1]): 43%
fold of αSMA-positive cells relative to unstimulated cells, mouse atrial fibroblasts + TGFβ1 (fold of unstimulated) (Mouse IL-11 (mouse) [2]): 1.24
percentage of activated (αSMA-positive) fibroblasts, mouse atrial fibroblasts + TGFβ1 (Mouse IL-11 (mouse) [2]): 39.4%
fold of αSMA-positive cells relative to unstimulated cells, human atrial fibroblasts + hyper IL-11 (fold of unstimulated) [3]: 1.28
percentage of activated (αSMA-positive) fibroblasts, human atrial fibroblasts + hyper IL-11 [3]: 33.8%
fold of αSMA-positive cells relative to unstimulated cells, human atrial fibroblasts + TGFβ1 (Human IL-11 (human)): 0.89 times
fold of αSMA-positive cells relative to unstimulated cells, human atrial fibroblasts + TGFβ1 (fold of unstimulated) (Human IL-11 (human)): 0.99
percentage of activated (αSMA-positive) fibroblasts, human atrial fibroblasts + TGFβ1 (Human IL-11 (human)): 28.3%
Substance: Monoclonal mouse anti-human IL-11 antibody, IgG2A, Clone #22626, Catalog No. MAB218 (R&D Systems)
